Data from paper PMC9808567.

T1: PRPF39 NTD (human, UniProt Q86UA1 1-296)
T1 sequence: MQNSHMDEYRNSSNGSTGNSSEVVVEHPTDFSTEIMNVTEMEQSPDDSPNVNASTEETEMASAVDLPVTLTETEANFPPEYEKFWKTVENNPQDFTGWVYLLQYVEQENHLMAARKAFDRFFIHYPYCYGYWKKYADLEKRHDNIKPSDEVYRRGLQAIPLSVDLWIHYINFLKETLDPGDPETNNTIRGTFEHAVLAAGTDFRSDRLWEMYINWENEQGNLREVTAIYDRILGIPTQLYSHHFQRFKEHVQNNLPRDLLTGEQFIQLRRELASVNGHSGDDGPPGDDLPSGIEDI

T2: PRPF39 CTD (human, UniProt Q86UA1 297-669)
T2 sequence: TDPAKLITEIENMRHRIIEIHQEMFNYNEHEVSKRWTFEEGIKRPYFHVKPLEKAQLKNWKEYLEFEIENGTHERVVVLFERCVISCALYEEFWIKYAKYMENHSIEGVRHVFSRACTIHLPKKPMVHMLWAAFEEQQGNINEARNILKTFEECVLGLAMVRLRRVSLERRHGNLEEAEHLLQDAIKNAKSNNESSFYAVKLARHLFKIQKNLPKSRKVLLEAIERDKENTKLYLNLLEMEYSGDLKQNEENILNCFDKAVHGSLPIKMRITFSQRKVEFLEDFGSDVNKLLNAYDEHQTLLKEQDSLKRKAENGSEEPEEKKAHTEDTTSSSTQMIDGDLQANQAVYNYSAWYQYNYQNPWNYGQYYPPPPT

T3: PRPF39 full-length (human, UniProt Q86UA1 1-669)
T3 sequence: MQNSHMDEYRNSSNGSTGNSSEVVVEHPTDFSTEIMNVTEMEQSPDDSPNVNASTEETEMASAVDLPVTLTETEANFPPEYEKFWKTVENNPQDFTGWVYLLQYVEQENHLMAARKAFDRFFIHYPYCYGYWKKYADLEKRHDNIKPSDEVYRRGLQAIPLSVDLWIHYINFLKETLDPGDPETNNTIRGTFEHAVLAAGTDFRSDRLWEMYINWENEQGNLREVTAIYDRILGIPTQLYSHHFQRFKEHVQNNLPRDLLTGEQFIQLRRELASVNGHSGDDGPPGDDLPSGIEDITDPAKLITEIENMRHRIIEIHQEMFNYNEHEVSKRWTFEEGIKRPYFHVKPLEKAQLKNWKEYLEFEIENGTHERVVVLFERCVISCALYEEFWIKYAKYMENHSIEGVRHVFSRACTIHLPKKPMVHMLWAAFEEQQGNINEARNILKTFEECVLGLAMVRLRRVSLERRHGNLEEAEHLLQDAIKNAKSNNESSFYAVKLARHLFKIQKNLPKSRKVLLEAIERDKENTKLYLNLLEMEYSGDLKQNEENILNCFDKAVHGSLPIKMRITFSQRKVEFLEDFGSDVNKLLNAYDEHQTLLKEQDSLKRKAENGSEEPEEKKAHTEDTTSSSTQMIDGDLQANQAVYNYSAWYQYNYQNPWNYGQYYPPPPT


Assays:
Test in all cases: EMSA
PRPF39 NTD = biological target: T1, PRPF39 NTD
PRPF39 CTD = biological target: T2, PRPF39 CTD
PRPF39 full-length = biological target: T3, PRPF39 full-length

Binder | binding result (PRPF39 NTD) | binding result (PRPF39 CTD) | Kd (PRPF39 full-length) [nM]
AAAAAAAAAA (ssRNA) [10 nt poly(A) RNA oligo] | no binding | no binding | –
GGCCCCCCGG (ssRNA) [GC-rich RNA oligo] | – | – | 516 ± 256
